Assay results from the supplement of paper PMC7877785.
± gives the uncertainty stated by the source.

Experiment: self-splicing fitness, log relative to wild type (ln ratio); higher = more splicing; Tetrahymena group I intron in knt gene, E. coli kanamycin selection, DiMSum; sequences stand for … in CUCUCU…GGAGGGAAAAGUUAUCAGGCAUGCACCUGGUAGCUAGUCUUUAAACCAAUAGAUUGCAUCGGUUUAAAAGGCAAGACCGUCAAAUUGCGGGAAAGGGGUCAACAGCCGUUCAGUACCAAGUCUCAGGGGAAACUUUGAGAUGGCCUUGCAAAGGGUAUGGUAAUAAGCUGACGGACAUGGUCCUAACCACGCAGCCAAGUCCUAAGUCAACAGAUCUUCUGUUGAUAUGGAUGCAGUUCACAGACUAAAUGUCGGUCGGGGAAGAUGUAUUCUUCUCAUAAGAUAUAGUCGGACCUCUCCUUAAUGGGAGCUAGCGGAUGAAGUGAUGCAACACUGGAGCCGCUGGGAACUAAUUUGUAUGCGAAAGUAUAUUGAUUAGUUUUGGAGUACUCGUGGUCG
Procedure, shortened: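 Pooled colonies went to amplicon sequencing on an Illumina HiSeq 2500 after six replicate transformations. The plates were LB agar with 100 μg/mL carbenicillin, 50 μM IPTG and 0.2% rhamnose, with or without 25 μg/mL kanamycin, incubated overnight at 37°C or 30°C. The E. coli BL21(DE3) library had all eight P1ex-region intron nucleotides randomised, the intron placed in the knt kanamycin-resistance gene on pET-22b(+). DiMSum fitness is the error-weighted combination of replicate fold changes, kanamycin against none, normalised to wild type.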

Row | Sequence | self-splicing fitness (ln) (30 °C) | self-splicing fitness (ln) (37 °C)
1 | GGCCAGCAAUAUUACGCGUG | -1.22 ± 0.079 | -0.385 ± 0.092
2 | GGCCAGCAAUAUUACGCUUA | -0.822 ± 0.15 | 0.139 ± 0.17
3 | GGCCAGCAAUAUUACGGACU | -2.24 ± 0.1 | -1.2 ± 0.1
4 | GGCCAGCAAUAUUACGGCAA | -0.216 ± 0.082 | -0.645 ± 0.087
5 | GGCCAGCAAUAUUACGGCAC | -1.58 ± 0.15 | -1.41 ± 0.19
6 | GGCCAGCAAUAUUACGGCAU | -1.13 ± 0.056 | -0.688 ± 0.066
7 | GGCCAGCAAUAUUACGGCCC | -2.83 ± 0.42 | –
8 | GGCCAGCAAUAUUACGGCCU | -3.58 ± 0.23 | -2.42 ± 0.27
9 | GGCCAGCAAUAUUACGGCGC | -1.79 ± 0.21 | -1.57 ± 0.34
10 | GGCCAGCAAUAUUACGGUGA | -0.376 ± 0.057 | 0.327 ± 0.076
11 | GGCCAGCAAUAUUACGGUGC | -2.91 ± 0.12 | -2.01 ± 0.11
12 | GGCCAGCAAUAUUACGGUUA | 0.0773 ± 0.069 | -0.541 ± 0.067
13 | GGCCAGCAAUAUUACGUAAC | -1.22 ± 0.082 | -1.19 ± 0.073
14 | GGCCAGCAAUAUUACGUAGC | -2.24 ± 0.16 | 0.278 ± 0.16
15 | GGCCAGCAAUAUUACGUAUG | -4.17 ± 0.31 | -2.85 ± 0.26
16 | GGCCAGCAAUAUUACGUCAG | -1.91 ± 0.13 | -2.98 ± 0.33
17 | GGCCAGCAAUAUUACGUCGU | -1.18 ± 0.061 | -0.452 ± 0.072
18 | GGCCAGCAAUAUUACGUGUC | -3.2 ± 0.17 | -1.41 ± 0.12
19 | GGCGAGCAAUAUUACGAAAU | -2.66 ± 0.25 | -0.868 ± 0.19
20 | GGCGAGCAAUAUUACGAACC | -2.56 ± 0.071 | -1.11 ± 0.085
21 | GGCGAGCAAUAUUACGAAGA | – | -1.49 ± 0.47
22 | GGCGAGCAAUAUUACGACAG | -3.57 ± 0.32 | –
23 | GGCGAGCAAUAUUACGACCA | -2.38 ± 0.39 | -1.05 ± 0.42
24 | GGCGAGCAAUAUUACGAGUC | -1.61 ± 0.36 | –
25 | GGCGAGCAAUAUUACGAUCA | -1.18 ± 0.17 | -0.735 ± 0.18
26 | GGCGAGCAAUAUUACGAUUG | -2.49 ± 0.13 | -2.05 ± 0.2
27 | GGCGAGCAAUAUUACGCACG | -2.49 ± 0.28 | -2.71 ± 0.36

Row | Sequence | self-splicing fitness (ln) (30 °C) | self-splicing fitness (ln) (37 °C)
28 | GGCGAGCAAUAUUACGGACA | -0.299 ± 0.23 | -0.824 ± 0.28
29 | GGCGAGCAAUAUUACGGACC | – | -0.87 ± 0.4
30 | GGCGAGCAAUAUUACGGACG | -0.223 ± 0.1 | -0.489 ± 0.21
31 | GGCGAGCAAUAUUACGGAGC | – | -2.17 ± 0.37
32 | GGCGAGCAAUAUUACGGCCC | 0.209 ± 0.31 | –
33 | GGCGAGCAAUAUUACGGGGU | -3.47 ± 0.25 | –
34 | GGCGAGCAAUAUUACGGGUA | -3.42 ± 0.26 | -2.79 ± 0.2
35 | GGCGAGCAAUAUUACGGUAU | -2.08 ± 0.13 | -1.04 ± 0.17
36 | GGCGAGCAAUAUUACGGUUA | -1.07 ± 0.11 | 0.0284 ± 0.088
37 | GGCGAGCAAUAUUACGUAUC | -1.61 ± 0.14 | -0.00113 ± 0.13
38 | GGCGAGCAAUAUUACGUCCG | -3.67 ± 0.35 | -2.39 ± 0.32
39 | GGCGAGCAAUAUUACGUUGA | -1.56 ± 0.13 | -2.18 ± 0.15
40 | GGCGAGCAAUAUUACGUUUU | -1.35 ± 0.094 | -1.35 ± 0.14
41 | GGCUAGCAAUAUUACGAACA | -1.01 ± 0.15 | -0.682 ± 0.15
42 | GGCUAGCAAUAUUACGAGAU | -3.58 ± 0.21 | -1.34 ± 0.14
43 | GGCUAGCAAUAUUACGAGGU | -3.02 ± 0.42 | -1.07 ± 0.18
44 | GGCUAGCAAUAUUACGAUAA | -1.28 ± 0.17 | -1.75 ± 0.16
45 | GGCUAGCAAUAUUACGAUGC | -1.03 ± 0.15 | -0.519 ± 0.28
46 | GGCUAGCAAUAUUACGCCAA | -2 ± 0.11 | -0.903 ± 0.16
47 | GGCUAGCAAUAUUACGCGCA | 0.157 ± 0.096 | -0.145 ± 0.13
48 | GGCUAGCAAUAUUACGCGCC | -3.69 ± 0.34 | -2.17 ± 0.38
49 | GGCUAGCAAUAUUACGCGUU | -0.656 ± 0.066 | -0.29 ± 0.08
50 | GGCUAGCAAUAUUACGCUCU | -2.35 ± 0.31 | -0.975 ± 0.19
51 | GGCUAGCAAUAUUACGGAAU | -0.705 ± 0.072 | -0.0885 ± 0.1
52 | GGCUAGCAAUAUUACGGAGA | -3.65 ± 0.37 | –
53 | GGCUAGCAAUAUUACGGAUA | -0.897 ± 0.13 | -0.492 ± 0.15
54 | GGCUAGCAAUAUUACGGCCA | -1.53 ± 0.21 | -0.776 ± 0.26

Row | Sequence | self-splicing fitness (ln) (30 °C) | self-splicing fitness (ln) (37 °C)
55 | GGCUAGCAAUAUUACGGCUU | -1.31 ± 0.17 | 0.197 ± 0.21
56 | GGCUAGCAAUAUUACGGGAC | -3.59 ± 0.3 | -0.762 ± 0.21
57 | GGCUAGCAAUAUUACGGGCG | -1.34 ± 0.095 | -0.19 ± 0.12
58 | GGCUAGCAAUAUUACGGUUA | 0.156 ± 0.084 | 0.606 ± 0.089
59 | GGCUAGCAAUAUUACGGUUC | -1.31 ± 0.056 | -0.331 ± 0.072
60 | GGCUAGCAAUAUUACGUAAC | -0.594 ± 0.083 | -0.442 ± 0.11
61 | GGCUAGCAAUAUUACGUAAG | -1.64 ± 0.068 | -0.594 ± 0.094
62 | GGCUAGCAAUAUUACGUAGC | -4.64 ± 0.42 | -2.16 ± 0.43
63 | GGCUAGCAAUAUUACGUCUG | -4.06 ± 0.31 | -2.13 ± 0.17
64 | GGCUAGCAAUAUUACGUGGC | -2.66 ± 0.28 | -1.23 ± 0.28
65 | GGCUAGCAAUAUUACGUUAA | -1.24 ± 0.091 | -0.642 ± 0.12
66 | GGGAAGCAAUAUUACGACGU | -0.169 ± 0.15 | 0.767 ± 0.17
67 | GGGAAGCAAUAUUACGAUUG | -3.59 ± 0.21 | -3.25 ± 0.3
68 | GGGAAGCAAUAUUACGCUAU | -2.75 ± 0.19 | -0.951 ± 0.14
69 | GGGAAGCAAUAUUACGGACC | -3.81 ± 0.4 | -2.35 ± 0.46
70 | GGGAAGCAAUAUUACGGACU | -1.99 ± 0.17 | -0.24 ± 0.19
71 | GGGAAGCAAUAUUACGGAUC | -0.0316 ± 0.077 | -0.684 ± 0.088
72 | GGGAAGCAAUAUUACGGCUA | -0.707 ± 0.089 | 0.0151 ± 0.12
73 | GGGAAGCAAUAUUACGGGAG | -3.28 ± 0.32 | -2.09 ± 0.27
74 | GGGAAGCAAUAUUACGGGGG | -4.18 ± 0.35 | -3.18 ± 0.32
75 | GGGAAGCAAUAUUACGGGUU | -3.15 ± 0.21 | -1.36 ± 0.15
76 | GGGAAGCAAUAUUACGGUCG | 0.00025 ± 0.1 | -0.403 ± 0.14
77 | GGGAAGCAAUAUUACGGUGA | -1.76 ± 0.3 | -0.447 ± 0.18
78 | GGGAAGCAAUAUUACGGUUA | -1.27 ± 0.11 | -0.726 ± 0.1
79 | GGGAAGCAAUAUUACGUAAU | -1.88 ± 0.14 | -0.632 ± 0.22
